Results on 24 molecules are retold here after patent US20210163601A1 (Amgen, published 2021).

Sequences and labels used below:
T1: Soluble ASGR-1 (recombinant, biotinylated) (human, UniProt P07306 62-291, limits assumed, biotinylated)
T1 construct: also called recombinant, soluble ASGR-1 biotinylated protein
T1 sequence: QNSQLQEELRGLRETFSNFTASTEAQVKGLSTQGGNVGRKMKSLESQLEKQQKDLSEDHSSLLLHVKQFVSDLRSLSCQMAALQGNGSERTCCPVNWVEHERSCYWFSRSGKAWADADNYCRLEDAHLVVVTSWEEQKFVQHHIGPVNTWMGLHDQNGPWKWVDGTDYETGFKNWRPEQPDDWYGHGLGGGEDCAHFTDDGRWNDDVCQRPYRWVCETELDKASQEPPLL

B1: 54E9 (antibody, V domains shown)
VH: QVQLVQSGAEVKKPGASVKVSCKASGYTFNSYGISWVRLAPGQGLEWMGWISAYNGNTKNAQKLQGRVTMTTDTSTSTAYMELRSLRSDDTAVYYCARHDFWSGYYKGMDVWGQGTTVTVSS
VL: not shown
notes: Tested as hybridoma supernatant
B2: 7G4 (antibody, V domains shown)
VH: QVQLVESGGGVVQPGRSLRLSCAASGFTFNNYVMHWVRQAPGKGLEWVAVIWYDGSNKYYADSVKGRFTISRDNSKNTLYLQMTSLRAEDTAVYYCAREKYSSNWYDYGMDVWGQGTTVTVSS
VL: DIQMTQSPSSLSASVGDRVTITCRASQGIRNDLGWYQQRPGKAPKRLIYAASSLQSGVPSRFSGSGSGTEFTLTISSLQPEDSATYYCLHQYSYPRTFGQGTKVEIK
notes: as for B1
B3: 5E5 (antibody, V domains shown)
VH: B2 VH with N30S, T84N, A97T, K100V, N104G
VL: B2 VL with R39K, S83F, H90Q, Q91H, I106V
notes: as for B1
B4: 218G4 (antibody, V domains shown)
VH: QVQLVESGGGVVQPGRSLRLSCAASGFTFSSYGLHWVRQAPGKGLEWVAVIWYDGSNKYYADSVKGRFTISRDNSKNTLYLQMNSLRVEDTAVYYCANWYYYYYGMDVWGQGTTVTVSS
VL: QSVLTQPPSVSAAPGQKVTISCSGSSSNIGNNYVSWYQQLPGTAPKLLLYDSNKRPSGIPARFSGSKSGTSATLGITGLQTGDEADYYCGTWDSSLNTVVFGGGTKLTVL
notes: as for B1
B5: 48B12 (antibody, V domains shown)
VH: EVQLLESGGGLVQPGGSLRLSCAASGFTFSSYAMNWVRQAPGKGLEWVSAISGRGGNTFYADSVKGRFTISRDNSKNTLYLQMNSLRAEDTAVYYCAKRETYNWNYEGFDYWGQGTLVTVSS
VL: SYELTQPPSVSVSPGQTARITCSGDALPKKYAYWYQQKSGQAPVLVIYEDSKRPSGIPERFSGSSSGTMATLTISGAQVEDEADYYCNSTDSSGNHVVFGGGTKLTVL
notes: as for B1
B6: 194A4 (antibody, V domains shown)
VH: QVQLVQSGTEVKKPGASLKVSCKASGYTFTVYYLNWVRQAPGQGLEWMGWINPNSGGTNYAQKFQGRVTMTRDTSISTAYMELSRLRSDDTAVYYCARGYDILTGWGQGTLVTVSS
VL: EIVLTQSPGTLSLSPGERATLSCRASRGVSNIYLAWYQQKPGQAPRLLIYGASNRATGIPDRFSGSGSGTDFTLTISRLEPEDFAVYYCQHNDYSMFTFGPGTKVDIK
notes: as for B1
B7: 194C1 (antibody, V domains shown)
VH: QVQLVESGGGVVQPGRSLRLSCAASGFTFSSYGMHWVRQAPGKGLEWVAVIWYDGSNEHYADSVKGRFTISRDNSKNTLYLQMNSLRAEDTAVYYCARNRGVGYYGLDVWGQGTTVTVSS
VL: DIQMTQSPSSLSASVGDRVTITCRASQGISNYLAWFQQKPGKAPKSLIYAASSLQSGVPSKFSGSGSGTDFTLTISSLQPEDFATYYCLHYLTYPLTFGGGTKVEIK
notes: as for B1
B8: 197G3 (antibody, V domains shown)
VH: B7 VH with A23V, Y32H, E58K, H59N, N99D, R100P, G101S, Y105D, L107M
VL: DIQMTQSPSSLSASVGDRVTITCRASQGIGNHLAWFQQKPGKAPKSLIYAASSLQSGVPSKFSGSRSGTDFSLTISSLQPEDFATYYCQQYSNYPVTFGPGTKVDIK
notes: as for B1
B9: 190F8 (antibody, V domains shown)
VH: B7 VH with S31T, E58K, H59N, N99D, R100Q, Y105D
VL: B7 VL with A25T, S30G, I48L, A50K, L89Q, H90Q, L92M
notes: as for B1
B10: 198G3 (antibody, V domains shown)
VH: B7 VH with R19K, S31T, S56T, E58K, H59N, Y80C, N99D, R100Q, Y105D
VL: B7 VL with T5A, A25T, S30G, N31K, I48L, A50K, S56G, L89Q, H90Q, L92M
notes: as for B1
B11: 191G10 (antibody, V domains shown)
VH: B7 VH with E58K, H59N, N99D, R100Q, Y105D
VL: B7 VL with A25T, S30G, N31K, I48L, A50K, A51V, L89Q, H90Q, L92M
notes: as for B1
B12: 191G1 (antibody, V domains shown)
VH: B7 VH with N99D
VL: B7 VL with L89Q
notes: as for B1
B13: 4B1 (antibody, V domains shown)
VH: QVQLQESGPGLVKPSETLSLTCSVSGDSISSYSWSWIRQPAGKGLEWIGRIYTSGSTNYIPSLKSRITMSVDTSKKQFSLKLSSVTAADTAVYYCARDLKSSGCLFFDYWGQGTLVTVSS
VL: DIQMTQSPSSLSASVGDRVTITCRASHTIRTYLNWYQQKPGKAPKLLIYAASSLQSGVPSRINGSGSGTDFTLTITNLQPEDFATYYCQQSYNISFTFGPGTKVDIK
notes: as for B1
B14: 75G3 (antibody, V domains shown)
VH: QVQLQQWGAGLLKPSETLSLTCAVYGGSLSGSYWSWIRQPPGKGLEWIGEINLSGSTNYNPSLKSRVTISVDTSKSQFSLTLRSVTAADTAVYYCARDYGGLDYWGQGTLVTVSS
VL: EIVLTQSPGTLSLSPGERATLSCRARQNVDSSYLAWYQQKPGQAPRLLIYGASSRATGIPDRFSGSGSGTDFTLTISRLEPEDFAVFYCQQYERSPWTFGQGTKVEIK
notes: as for B1
B15: 22G5 (antibody, V domains shown)
VH: EVQLLESGGGLVQPGGSLRLSCAASGFTFSSYAMNWVRQAPGMGLEWVSVISRSGGYTYYADSVKGRFTISRDNSKNTLYLQMNSLRAEDTAVYYCASRLAVAGSEAFDIWGQGTLVTVSS
VL: DIQMTQSPSSLSASVGDRVTITCRASQNISSYLNWYQQKQGKAPKLLIYAASSLQNGVPSRFSGRGSGTDFTLTISSLQPEDFATYYCQQSYRTPLFTFGPGTKVDFK
notes: as for B1
B16: 184E7 (antibody, V domains shown)
VH: QVQLVQSGAEVKTPGASVKVSCRASGYTFTSYNMHWVRQVPGQGLEWMGWINPNNGGSNYTQKFQGRVTMTRDTSISTAYMELSRLRSDDTAVYYCARKFGDWGQGTLVTVSS
VL: DIQMTQSPSSRSASIGERVTITCRASQGISNYLAWIQQKPGTAPKSLIYAASSLQSGVSSRFSGSGFGTDFTITISSVQREDFATYYCQQYNGYPFTFGHGTKVDIK
notes: as for B1
B17: 4H6 (antibody, V domains shown)
VH: QVQLVQSGAEVKKPGASVKVSCKASGYTFTDYYLHWVRQAPGQGLEWMGWIHPNSGGTNYAQKFQGRVTMTRDTSISTAYMGLSSLRSDDTAVYYCARDGTSSFDYWGQGTLVTVSS
VL: DIQMTQSPSSVSASVGDRVTITCRASQGISRWLAWYQQKPGKAPKLLIYGASSLQSGVPSRFSGSGSGTDFTLTISSLQPEDFAIYYCQQANSFPFTFGPGTKVDIK
notes: as for B1
B18: 72G9 (antibody, V domains shown)
VH: EVQLVESGGGLVKPGGSLRLSCAASGFTFSSYSMNWVRQAPGKGLEWVSSISGSSSYIYYADSVKGRFTISRDNAKNSLYLQMNSLRAEDTAVYFCARGGSRGFDPWGQGTLVTVSS
VL: B17 VL with V11L, G28S, S30T, R31S, W32Y, A34N, G50T, I85T, A91S, N92H
notes: as for B1
B19: 25A4 (antibody, V domains shown)
VH: QVLLVQSGAEVKRPGASVKVSCKASGYTFTNYDINWVRQATGQGLEWMGWMYPNSGNTGYAQKFQGRVTMTRNTSISTAYMELSSLRSEDTAVYYCASSSGWYYFDYWGQGTLVTVSS
VL: DIVMTQFPDSLAVSLGERATIKCKSSQSVLYSSHNNNYLAWYQQKPGQPPKLLLYWASTRESGVPDRFSGSGSGTEFTLTISSLEAEDVAVYYCQQYYSTPPTFGQGTKVEIK
notes: as for B1
B20: 26C4 (antibody, V domains shown)
VH: B19 VH with L3Q, R13K, T41S, Y52N, K63R, S77N
VL: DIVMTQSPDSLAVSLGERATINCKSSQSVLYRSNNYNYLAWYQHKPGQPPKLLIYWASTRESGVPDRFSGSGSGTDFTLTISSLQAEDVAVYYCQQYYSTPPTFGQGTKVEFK
notes: as for B1
B21: 4A2 (antibody, V domains shown)
VH: B19 VH with L3Q, A9T, R13K, Y52H, M70L
VL: DIVMTQSPDSLAVSLGERATINCKSSQSILHSSNNNNYLAWFQQKPGQPPKLLLYWASTRESGVPDRFSGSGSGTDFTLTISSLQPEDVAVYYCQQYYNTPVTFGPGTKVGIK
notes: as for B1
B22: 29H8 (antibody, V domains shown)
VH: B19 VH with L3Q, K12Q, R13K, Y52N, K63R, T78A
VL: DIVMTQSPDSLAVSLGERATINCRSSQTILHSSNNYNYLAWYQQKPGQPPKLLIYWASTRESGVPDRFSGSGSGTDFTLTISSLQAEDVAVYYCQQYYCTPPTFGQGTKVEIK
notes: as for B1
B23: 7E11 (antibody, V domains shown)
VH: QVQLVESGGGVVQPGRSLRLSCAASGFTFSSFGMHWVRQAPGKGLEWVAIIWHDGSNKYYADSVKGRFTISRDNSNNTLYLQMSSLRAEDTAVYYCARDLSMGGMDVWGQGTTVTVSS
VL: DIQMTQSPSSLSASVGDRVTIACRASQNIISYLNWYQQKPGKAPKFLIYTASSLQSGVPSRFSGSGSGTDFTLTISSLQPEDFAIYYCQQTYSTPLTFGGGTKVEIK
notes: as for B1
B24: 6G7 (antibody, V domains shown)
VH: QVQLVESGGGVVQPGRSLRLSCAASGFTFSSYGMHWVRQTPGKGLEWVAIISYVGKNKYYADSVKGRFTISRDNSKNTLYLQMNSLRAEDTAVYYCARRGNSYGGYGMDVWGQGTTVTVSS
VL: DIQMTQSPSSRSASVGDRVTITCQASQDISNYLNWCQQKPGKALKLLIYDASTLETGVPSRFSGSGSGTDFTFTISSVQPEDIATYYCQQYDNVPITFGQGTRLEIK
notes: as for B1

Residue numbers refer to the chain shown, from its start.

This assay concerns the target T1, Soluble ASGR-1 (recombinant, …). The experiment in a line: limiting antigen bead FACS; biotinylated soluble ASGR-1 coated at 2.5 ng/mL on LumAvidin beads.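 Further: hybridoma supernatants of ligand-competing antibodies bound to antigen-loaded beads, read by flow cytometry on an iQue Screener in calcium-containing buffer, higher fluorescence meaning stronger relative affinity.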
On to B1, for which the “FACS Geomean” value came to 6490.

For B2, the “FACS Geomean” value was found to be 6800.

In the case of B3, the “FACS Geomean” value came to 3280.

As for B4, the “FACS Geomean” value worked out at 15100.

For B5, the “FACS Geomean” value is 27000.

For B6, the “FACS Geomean” value turned out to be 38900.

As for B7, the “FACS Geomean” value worked out at 16900.

For the molecule B8, the “FACS Geomean” value came out at 17700.

Consider B9, for which the “FACS Geomean” value came to 13900.

Consider B10, for which the “FACS Geomean” value is 26000.

Consider B11, for which the “FACS Geomean” value worked out at 24200.

As for B12, the “FACS Geomean” value is 9550.

For B13, the “FACS Geomean” value came out at 10100.

B14: the “FACS Geomean” value came out at 35800.

Regarding B15, the “FACS Geomean” value was found to be 1080.

As to B16, the “FACS Geomean” value was 40200.

B17: the “FACS Geomean” value turned out to be 2990.

Turning to B18, the “FACS Geomean” value stood at 34000.

As to B19, the “FACS Geomean” value is 18000.

B20: the “FACS Geomean” value stood at 12000.

For B21, the “FACS Geomean” value was determined as 16600.

As to B22, the “FACS Geomean” value is 12200.

With B23, the “FACS Geomean” value stood at 4660.

As to B24, the “FACS Geomean” value worked out at 2290.
